Our source for the protein stability index values is the supplement of paper PMC10567573.

B1: ZNF449 (parent)
chain: HTGERPYECTVCKKRFTRRSHLIG
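Further: lentivirally expressed fusions sorted by FACS into six bins by GFP to DsRed ratio, PSI derived from sequencing read proportions per bin multiplied by bin number.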

This series covers variants of B1. As to the kind of experiment: protein stability index of a GFP-peptide fusion (GPS, HEK-293T) (PSI 1-6); higher = more stable. As to conditions: c terminus: a fixed tail appended.
As to HTGNRPYECTVCKKRFTRRSHLIG [E4N], the protein stability index worked out at 2.15. The figure for HTGIRPYECTVCKKRFTRRSHLIG [E4I] is 1.66; for HTGVRPYECTVCKKRFTRRSHLIG [E4V] it is 2.02; for HTGTRPYECTVCKKRFTRRSHLIG [E4T] it is 2.76.

With HTGKRPYECTVCKKRFTRRSHLIG [E4K], the protein stability index was determined as 1.7. The figure for HTGDRPYECTVCKKRFTRRSHLIG [E4D] is 1.82. The figure for HTGCRPYECTVCKKRFTRRSHLIG [E4C] is 2.26; for HTGMRPYECTVCKKRFTRRSHLIG [E4M] it is 2.24; for HTGQRPYECTVCKKRFTRRSHLIG [E4Q] it is 2.66.

As for HTGARPYECTVCKKRFTRRSHLIG [E4A], the protein stability index amounted to 1.42. The figure for HTGLRPYECTVCKKRFTRRSHLIG [E4L] is 1.5. The figure for HTGRRPYECTVCKKRFTRRSHLIG [E4R] is 1.96; for HTGGRPYECTVCKKRFTRRSHLIG [E4G] it is 1.55; for HTGWRPYECTVCKKRFTRRSHLIG [E4W] it is 1.8. The figure for HTGYRPYECTVCKKRFTRRSHLIG [E4Y] is 1.58.

As to HTGSRPYECTVCKKRFTRRSHLIG [E4S], the protein stability index stood at 2.53. The figure for HTGHRPYECTVCKKRFTRRSHLIG [E4H] is 2.17; for HTGFRPYECTVCKKRFTRRSHLIG [E4F] it is 1.9. The figure for HTGPRPYECTVCKKRFTRRSHLIG [E4P] is 2.04; for HYGERPYECTVCKKRFTRRSHLIG [T2Y] it is 1.9; for HNGERPYECTVCKKRFTRRSHLIG [T2N] it is 2.13.

For the variant HWGERPYECTVCKKRFTRRSHLIG [T2W], the protein stability index is 2.13. The figure for HRGERPYECTVCKKRFTRRSHLIG [T2R] is 2.12; for HQGERPYECTVCKKRFTRRSHLIG [T2Q] it is 2.24. The figure for HPGERPYECTVCKKRFTRRSHLIG [T2P] is 1.8; for HSGERPYECTVCKKRFTRRSHLIG [T2S] it is 1.83.

On to HVGERPYECTVCKKRFTRRSHLIG [T2V], for which the protein stability index came to 1.97.

With HTGERPYECTDCKKRFTRRSHLIG [V11D], the protein stability index amounted to 2.44. The figure for HTGERPYECTKCKKRFTRRSHLIG [V11K] is 3.82. The figure for HTGERPYECTWCKKRFTRRSHLIG [V11W] is 2.6; for HTGERPYECTFCKKRFTRRSHLIG [V11F] it is 1.47. The figure for HTGERPYECTQCKKRFTRRSHLIG [V11Q] is 3.12; for HTGERPYECTNCKKRFTRRSHLIG [V11N] it is 2.8; for HTGERPYECTSCKKRFTRRSHLIG [V11S] it is 2.58. With HTGERPYECTCCKKRFTRRSHLIG [V11C], the protein stability index amounted to 2.29.

As for HTGERPYECTMCKKRFTRRSHLIG [V11M], the protein stability index amounted to 1.91. The figure for HTGERPYECTGCKKRFTRRSHLIG [V11G] is 2.99; for HTGERPYECTECKKRFTRRSHLIG [V11E] it is 3.06; for HTGERPYECTPCKKRFTRRSHLIG [V11P] it is 2.58. The figure for HTGERPYECTLCKKRFTRRSHLIG [V11L] is 2.08; for HTGERPYECTTCKKRFTRRSHLIG [V11T] it is 3.47.

Regarding HTGERPYECTYCKKRFTRRSHLIG [V11Y], the protein stability index was found to be 2.64. As for HTGERPYECTRCKKRFTRRSHLIG [V11R], the protein stability index stood at 2.39.

Consider HTGERPYECTHCKKRFTRRSHLIG [V11H], for which the protein stability index worked out at 2.99.

Regarding HTGERPYECTICKKRFTRRSHLIG [V11I], the protein stability index stood at 1.58. The figure for HTGERPYECTVCEKRFTRRSHLIG [K13E] is 2.42.

With HTGERPYECTVCFKRFTRRSHLIG [K13F], the protein stability index worked out at 2.

Consider HTGERPYECTVCIKRFTRRSHLIG [K13I], for which the protein stability index came out at 2.06. HTGERPYECTVCGKRFTRRSHLIG [K13G]: the protein stability index turned out to be 1.52. As to HTGERPYECTVCDKRFTRRSHLIG [K13D], the protein stability index was 2.91. Take HTGERPYECTVCCKRFTRRSHLIG [K13C]: the protein stability index worked out at 1.06. The figure for HTGERPYECTVCAKRFTRRSHLIG [K13A] is 1.63; for HTDERPYECTVCKKRFTRRSHLIG [G3D] it is 2.44.

On to HTHERPYECTVCKKRFTRRSHLIG [G3H], for which the protein stability index stood at 3.28.

Regarding HTVERPYECTVCKKRFTRRSHLIG [G3V], the protein stability index was determined as 1.82. The figure for HTYERPYECTVCKKRFTRRSHLIG [G3Y] is 1.9. The figure for HTRERPYECTVCKKRFTRRSHLIG [G3R] is 1.73; for HTTERPYECTVCKKRFTRRSHLIG [G3T] it is 2.12. As to HTIERPYECTVCKKRFTRRSHLIG [G3I], the protein stability index was found to be 2.39. The figure for HTLERPYECTVCKKRFTRRSHLIG [G3L] is 3.83; for HTQERPYECTVCKKRFTRRSHLIG [G3Q] it is 3.59. The figure for HTWERPYECTVCKKRFTRRSHLIG [G3W] is 2.43; for HTNERPYECTVCKKRFTRRSHLIG [G3N] it is 1.85; for HTAERPYECTVCKKRFTRRSHLIG [G3A] it is 2.63. The figure for HTKERPYECTVCKKRFTRRSHLIG [G3K] is 2.2.

For HTMERPYECTVCKKRFTRRSHLIG [G3M], the protein stability index came to 2.38. The figure for HTSERPYECTVCKKRFTRRSHLIG [G3S] is 2.33. The figure for HTCERPYECTVCKKRFTRRSHLIG [G3C] is 3.04; for HTPERPYECTVCKKRFTRRSHLIG [G3P] it is 2.52; for HTFERPYECTVCKKRFTRRSHLIG [G3F] it is 2.06. The figure for HTEERPYECTVCKKRFTRRSHLIG [G3E] is 2.26. Consider HTGERPYECTVPKKRFTRRSHLIG [C12P], for which the protein stability index came to 3.06. The figure for HTGERPYECTVLKKRFTRRSHLIG [C12L] is 1.55; for HTGERPYECTVNKKRFTRRSHLIG [C12N] it is 3.42; for HTGERPYECTVHKKRFTRRSHLIG [C12H] it is 3.73.

With HTGERPYECTVMKKRFTRRSHLIG [C12M], the protein stability index came to 4.64. In the case of HTGERPYECTVYKKRFTRRSHLIG [C12Y], the protein stability index was 3.2.

For HTGERPYECTVKKKRFTRRSHLIG [C12K], the protein stability index turned out to be 3.98.

On to HTGERPYECTVVKKRFTRRSHLIG [C12V], for which the protein stability index stood at 2.76. Regarding HTGERPYECTVWKKRFTRRSHLIG [C12W], the protein stability index was found to be 1.86. Turning to HTGERPYECTVSKKRFTRRSHLIG [C12S], the protein stability index came to 3.39. The figure for HTGERPYECTVDKKRFTRRSHLIG [C12D] is 3.99. The figure for HTGERPYECTVFKKRFTRRSHLIG [C12F] is 3.01; for HTGERPYECTVRKKRFTRRSHLIG [C12R] it is 3.79; for HTGERPYECTVIKKRFTRRSHLIG [C12I] it is 3.31. The figure for HTGERPYACTVCKKRFTRRSHLIG [E8A] is 1.77; for HTGERPYPCTVCKKRFTRRSHLIG [E8P] it is 1.94; for HTGERPYICTVCKKRFTRRSHLIG [E8I] it is 2.74. As to HTGERPYYCTVCKKRFTRRSHLIG [E8Y], the protein stability index is 2.15.

Take HTGERPYDCTVCKKRFTRRSHLIG [E8D]: the protein stability index amounted to 2.72. The figure for HTGERPYVCTVCKKRFTRRSHLIG [E8V] is 2.35; for HTGERPYNCTVCKKRFTRRSHLIG [E8N] it is 1.79; for HTGERPYLCTVCKKRFTRRSHLIG [E8L] it is 2.77. The figure for HTGERPYRCTVCKKRFTRRSHLIG [E8R] is 2.22.
